Consider 19 molecules from patent US20240084032A1 (BLUEFIN BIOMEDICINE, published 2024).

Residue numbers refer to the chain shown, from its start. A value given as a limit tells only on which side of the number the result lay.

For one assay, the target named is T1, Cynomolgus monkey CDCP1 (Macaca fascicularis, UniProt A0A2K5VLA8).
T1 construct: recombinant ectodomain from CHO cells; construct not given; also called cyCDCP1; BBP468
The experiment in a line: Octet BLI, Ab on Protein A sensor, recombinant CDCP1 analyte. (In general: In BLI a coated tip is dipped into the sample, and binding shifts an interference pattern.)

Assay [1] concerns the target T2, recombinant human CDCP1 ECD (AA30-667) with C-terminal His tag (human, UniProt Q9H5V8 30-667).
T2 construct: range 30-667; also called FL-ECD; recombinant FL-ECD
The description is as above.
Protocol: (§1) Affinity: The affinity of antibodies to various recombinant CDCP1 molecules was determined on an Octet Red (Pall, ForteBio) instrument. After loading reagents into a 96-well plate, the Octet Red with Protein A-conjugated biosensors was programmed as follows: 30 seconds for baseline #1; 120 seconds to immobilize the antibody; 30 seconds for baseline #2; 300 seconds for association of antibody to recombinant CDCP1; and 300-600 seconds for dissociation of recombinant CDCP1 from the antibody.

For assay [2], the target named is human CDCP1 endogenously expressed on cancer cell lines (human, UniProt Q9H5V8 30-836). The assay can be described thus: cell-based or functional assay.
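For Kd in this document: antibody captured for 120 s on the sensor, followed by 300 s association with CDCP1 and a 300–600 s dissociation phase.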

Protocol for Cynomolgus monkey CDCP1: as §1

B1: 18C6 (antibody, human IgG1, V domains shown)
VH: QVQLQESGPGQVKPSETLSLTCTVSGGSISSSFWSWIRQPPGKGLEWIGYIYYSESTNYNPSLKRRVTLSVDTSKNQFSLKLTSVTTADTAVYYCARNIGVAGLFDYWGQGTLVTVSS
VL: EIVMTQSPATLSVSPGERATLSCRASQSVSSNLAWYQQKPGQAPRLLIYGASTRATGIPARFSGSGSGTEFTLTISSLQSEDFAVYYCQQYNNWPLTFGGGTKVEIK
notes: also called 18C06; human antibody 18C6
As a reminder, the Kd is the equilibrium constant for the complex coming apart. Consider B1, for which the Kd came out at 0.19 µM with Cynomolgus monkey CDCP1 and 0.025 µM in assay [1].

B2: 38E11-vcMMAE (other)
VH: EVQLLESGGGLVQPGGSLRLSCAASGFTFSNYAMNWVRQAPGKGLEWVSAISGGGGSTYYADSVKGRFTISRDNSKNTLYLQMNSLRAEDTAVYYCAKESITMVRGVMDYYGMDVWGQGTTVTVSS
VL: DIQLTQSPSFLSASVGDRVTITCRASQGISSYLAWYQQKPGKAPKLLIYAASTLQGGVPSRFSGSGSGTEFTLTISSLQPEDFATYYCQHLNRFPRTFGQGTKVEIK
modifications: maleimidocaproyl-valine-citrulline-p-aminobenzoyloxycarbonyl-MMAE on hinge region cysteine thiols, positions not given; DAR 3.9
Consider B2, for which, in assay [2], the “EC50 of killing, Cal-12T NSCLC cells, CellTiter Glo, 96 hrs” value is above 1 mg/L; the “EC50 of killing, DU145 prostate cancer cells, CellTiter Glo, 96 hrs” value worked out at 1 mg/L; the “EC50 of killing, H1650 NSCLC cells, CellTiter Glo, 96 hrs” value is above 1 mg/L; the “EC50 of killing, HCC15 NSCLC cells, CellTiter Glo, 96 hrs” value was above 1 mg/L. For the same molecule, in assay [2], the “EC50 of killing, HCC44 NSCLC cells, CellTiter Glo, 96 hrs” value is above 1 mg/L; the “EC50 of killing, HCC78 NSCLC cells, CellTiter Glo, 96 hrs” value is above 1 mg/L; the “EC50 of killing, HCC827 NSCLC cells, CellTiter Glo, 96 hrs” value was above 1 mg/L; the “EC50 of killing, PC3 prostate cancer cells, CellTiter Glo, 96 hrs” value came out at 0.1 mg/L.

B3: 50D6 (antibody, V domains shown)
VH: EVQVLESGGGLVQPGGSLRLSCAASGFTFSNYAMNWVRQAPGKGLEWVSAISGGGGSTYYADSVKGRATISRDNSENTLYLQMNSLRAEDTAVYYCAKTSSGWYDSYYDYYGLDVWGQGTTVTVSS
VL: B2 VL with S31N, A43V, A51V, G56S, H90Q, R93S, F94Y, R96F, Q100G, V104L
Turning to B3, the Kd (with Cynomolgus monkey CDCP1; in assay [1]) was below 0.001 µM in each case.

B4: 38E11 (antibody, human IgG1, V domains shown)
VH: B2 VH
VL: B2 VL
notes: also called human antibody 38E11
With B4, the Kd stood at 0.004 µM with Cynomolgus monkey CDCP1 and 0.002 µM in assay [1].

B5: 38E11-PBD (other)
VH: B2 VH
VL: B2 VL
modifications: MA-PEG8-VA-PAB-SG3199 (PBD) on hinge region cysteine thiols, positions not given; DAR 2.3
On to B5, for which, in assay [2], the “EC50 of killing, Cal-12T NSCLC cells, CellTiter Glo, 96 hrs” value was above 1 mg/L; the “EC50 of killing, DU145 prostate cancer cells, CellTiter Glo, 96 hrs” value came out at 0.1 mg/L; the “EC50 of killing, H460 NSCLC cells, CellTiter Glo, 96 hrs” value is around 0.1 mg/L; the “EC50 of killing, H1299 NSCLC cells, CellTiter Glo, 96 hrs” value is above 1 mg/L. Moreover, in assay [2], the “EC50 of killing, H1650 NSCLC cells, CellTiter Glo, 96 hrs” value was around 1 mg/L; the “EC50 of killing, HCC44 NSCLC cells, CellTiter Glo, 96 hrs” value is around 1 mg/L; the “EC50 of killing, HCC827 NSCLC cells, CellTiter Glo, 96 hrs” value is above 1 mg/L; the “EC50 of killing, LNCAP prostate cancer cells, CellTiter Glo, 96 hrs” value was determined as 0.01 mg/L. The “EC50 of killing, PC3 prostate cancer cells, CellTiter Glo, 96 hrs” value in assay [2] worked out at 1 mg/L.

B6: 3B11 (antibody, human IgG1, V domains shown)
VH: QVQLQQWDAGLLKPSETLSLTCAVYGGSFSSYYWSWIRQPPGKGLEWIGEINHSGSTSYNPSLKSRVTISIDTSKNQFSLKLNSMTAADTAVYFCAASPYFDYWGQGTLVTVSS
VL: B2 VL with G56S, H90Q, R93S, F94Y
notes: also called 03B11; 3B111
For the molecule B6, the Kd with Cynomolgus monkey CDCP1 was above 0.5 µM; in assay [1] it was 0.06 µM.

B7: 10E2 (antibody, V domains shown)
VH: QVQLVESGGGVVQPGRSLRLSCAASGFTFSSYGMHWVRQAPGKGLEWVAVVWYDGTIKYYADSVKGRFTISRDNPKNTLYLQMNSLRAEDTAVYYCASQYSSGWHTDFFDVWGQGTMVTVSS
VL: DIQMTQSPSTLSASVGDRVTITCRASQSISTWLAWYQQKPGKAPKFLIYKASSLESGVPSRFSGSGSGTEFTLTISSLQPDDFATYYCQQYSGYSLTFGGGTKVEIK
notes: also called human antibody 10E2
Take B7: the Kd with Cynomolgus monkey CDCP1 was 0.001 µM; in assay [1], below 0.001 µM.

B8: 04G06 (antibody, V domains shown)
VH: QVQLVESGGGVVQPGRSLRLSCVVSGFTLSSYGMHWVRQAPGKGLEWVAVIWYDGSDKYYADSVKGRFTISRDNSKNTLYLQMNSLRAEDTAVYYCARDDWGFDYWGQGTLVTVSS
VL: DIQLTQSPSFLSASVGDRVTITCRASQDISNYLAWYQQKPGKAPKLLISASTLQSGVPSRFSGSGSGTEFILTISSLQPEDFATYYCQHLNSYPFGQGTKVEIK
notes: also called 4G6
Regarding B8, the figures for the Kd (in the assay with Cynomolgus monkey CDCP1; in assay [1]) were 0.027 µM and 0.004 µM, respectively.

B9: 03B05 (antibody, V domains shown)
VH: QVQLVESGGGVVQPGRSLRLSCAASGFTFSSYGMHWVRQAPGKGLEWVAIIWYDGSNKYYADSVKGRFTISRDNSKNTLYLQMNSLRAEDTAVYYCAKDPSYSSGYYLFDFWGQGTLVTVSS
VL: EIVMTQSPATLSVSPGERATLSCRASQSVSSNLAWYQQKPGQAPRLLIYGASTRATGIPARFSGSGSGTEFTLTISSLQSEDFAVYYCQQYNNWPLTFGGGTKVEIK
notes: also called 3B5
Consider B9, for which the Kd with Cynomolgus monkey CDCP1 was determined as 0.075 µM; in assay [1] it was 0.017 µM.

B10: 41A9 (antibody, human IgG1, V domains shown)
VH: QVQLQQWGAGLLKPSETLSLTCAVYGGSFSDYYWSWIRQPPGKGLEWIGEINHSGSTNYNPSLKSRVTISVDTSKNQFSLKLSSVTAADTAVYYCARDYDVLTGHFYYYYGMDVWGQGTTVTVSS
VL: EIVLTQSPATLSLSPGERATLSCRASQSVRRYLAWYQQKPGQAPRLLIYDASNRATGIPARFSGSGSGTDFTLTISSLEPEDFAVYYCQQRNNWPLTFGGGTKLEIK
notes: also called 41A09; human antibody 41A9
For the molecule B10, the Kd in the assay with Cynomolgus monkey CDCP1 stood at 0.013 µM; in assay [1], 0.006 µM.

B11: 05A8 (antibody, V domains shown)
VH: EVQLLESGGGLVQPGGSLRLSCAASGFTFSNYAMSWVRQAPGKGLEWVSAISGRGGSTYYADSVKGRFTISRDNSKNTLYLQMNSLRAEDTAVYYCAKDIVVVPAAKGYVMDAWGQGASVTVSS
VL: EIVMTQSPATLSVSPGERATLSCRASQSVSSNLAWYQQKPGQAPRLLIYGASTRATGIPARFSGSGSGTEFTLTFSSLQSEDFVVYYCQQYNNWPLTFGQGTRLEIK
For the molecule B11, the values for the Kd (with Cynomolgus monkey CDCP1; in assay [1]) were 0.018 µM and 0.007 µM, respectively.

B12: 42C5 (antibody, V domains shown)
VH: EVQLVESGGGLVQPGGSLRLSCAASGFTFSRYWMNWVRQAPGKGLEWVANIKQDGSEKDYVDSVKGRFTISRDNAKNSLFLQMSSLRAEDTAVYYCARVMYSSGWSFDYWGQGTLVTVSS
VL: DIVMTQSPLSLPVTPGEPASISCRSSRSLLHSSGYNFLDWFLQKPGQSPQLLIFLGSDRASGVPDRFSGSGSGTDFTLKISRVETEDVGVYYCMQALQTPITFGQGTRLEIK
B12: the figures for the Kd (with Cynomolgus monkey CDCP1; in assay [1]) were 0.012 µM and 0.002 µM, respectively.

B13: 47G7 (antibody, human IgG1, V domains shown)
VH: B12 VH with R31S, N35S, F80Y, S84N, A88V, V99E, M100G, Y101G, S106T
VL: B12 VL with R27Q, Y35H, F41Y, F54Y, D58N, T85A, I101P, R108K
notes: also called human antibody 47G7
Consider B13, for which the Kd with Cynomolgus monkey CDCP1 turned out to be 0.5 µM; in assay [1] it was 0.035 µM.

B14: 02F3 (antibody, V domains shown)
VH: QVQLVESGGGVVQPGRSLRLSCAASGFSFSDYGIHWVRQAPGKGLEWVAVIWYDGSNKYYADSVKGRFTISRDNSKNTLYLQVNSLIAEDTAVYYCARDRGYSSGWYVDYYYYGMDVWGQGTTVTVSS
VL: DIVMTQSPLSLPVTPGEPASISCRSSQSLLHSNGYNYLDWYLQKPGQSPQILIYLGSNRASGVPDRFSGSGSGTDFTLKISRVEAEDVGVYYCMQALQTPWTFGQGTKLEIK
For B14, the values for the Kd (in the assay with Cynomolgus monkey CDCP1; in assay [1]) were 0.083 µM and 0.008 µM, respectively.

B15: 01E2 (antibody, V domains shown)
VH: QVQLVESGGGVVQPGRSLRLSCAASGFTFSSYGMHWVRQAPGKGLEWVAVIWYAGSNKYYADSVKGRFTISRDNSKNTLYLQMNSLRAEDTAVYYCAGWDFDYWGQGTLVTVSS
VL: EIVLTQSPATLSLSPGERATLSCRASQTVPNYLAWYQQKPGQAPRLLIYDASNRATDIPARFSGSGSGTDFTLTISSLEPEDFAVYYCQQRANWPPITFGQGTRLEIK
In the case of B15, the Kd was above 0.5 µM with Cynomolgus monkey CDCP1 and 0.02 µM in assay [1].

B16: 12C2 (antibody, V domains shown)
VH: QEQLVESGGGVVQPGRSLRLSCVTSGFTFSSYGMHWVRQAPGKGLEWVAVIWYDGTNKYYADTVKGRFTISRDNSKNTLYLQMNSLRAEDTGVYYCAREGCDTISCPYYYYGMDVWGQGTTITVSS
VL: DILMTQSPSSLSASVGDRVTITCRASQGINYYLAWYQQKPGKVPKLLIYTASTLQSGVPSRFSGSGSGTDFTLTISSLQPEDVATYFCQKYNSAPFTFGPGTKLEIK
With B16, the Kd worked out at 0.008 µM with Cynomolgus monkey CDCP1 and 0.001 µM in assay [1].

B17: 03C05 (antibody, V domains shown)
VH: EVQVLESGGGLVQPGGSLRLSCAASGFTFSSYVMSWVRQAPGKGLEWVSGISGSGGSTHYADSVKGRFTISRDNSKNTLYLQMNSLRAEDTALYYCAQQWPQGYWGQGTLVTVSS
VL: B16 VL with L3Q, G28D, N30S, Y31I, Y36F, L46V, T50A, S67T
notes: also called 3C5
As for B17, the Kd with Cynomolgus monkey CDCP1 was 0.08 µM; in assay [1], 0.02 µM.

B18: 14H4 (antibody, V domains shown)
VH: EVQLLESGGDLVQPGGSLRLSCAASGFTFNSYAMSWVRQAPGKGLEWVSVLSGSGGDIHYADSVKGRFTVSRDNSKNMLYLQMNSLRAEDTAVYFCAQQWPQGYWGQGTLVTVSS
VL: B16 VL with L3Q, N30S, Y31I, Y36F, T50A, F87Y, L104V
With B18, the Kd with Cynomolgus monkey CDCP1 was 0.005 µM; in assay [1] it was below 0.001 µM.

B19: 27H10 (antibody, human IgG1, V domains shown)
VH: QVQLVQSGAEVKKPGSSVKVSCKASGGTFSSYAMSWVRQAPGQGLEWMGGIIPILGTTNYAQKFQGRVTITADKSTSTAYMELSSLRSEDTAVYYCAREGLYAFDIWGQGTMVTVSS
VL: DIQMTQSPSSLSASVGDRVTITCRASQSISSYLNWYQQKPGKAPKFLIYVASSLQSGVPSRFSGRGSGTDFTLTISSLQPEDFATYYCQQSYSTPWTFGQGTKVEIK
notes: also called human antibody 27H10
Take B19: the Kd (with Cynomolgus monkey CDCP1; in assay [1]) was 0.045 µM throughout.
